The values that follow are results of earlier work, collected in PMC10366146.

Broadly, the Kd is the equilibrium constant for the complex coming apart.

The data set concerns the target VEGFR2 (Homo sapiens) (UniProt P35968).
Sequence of UniProt P35968 (P35968 20-1356): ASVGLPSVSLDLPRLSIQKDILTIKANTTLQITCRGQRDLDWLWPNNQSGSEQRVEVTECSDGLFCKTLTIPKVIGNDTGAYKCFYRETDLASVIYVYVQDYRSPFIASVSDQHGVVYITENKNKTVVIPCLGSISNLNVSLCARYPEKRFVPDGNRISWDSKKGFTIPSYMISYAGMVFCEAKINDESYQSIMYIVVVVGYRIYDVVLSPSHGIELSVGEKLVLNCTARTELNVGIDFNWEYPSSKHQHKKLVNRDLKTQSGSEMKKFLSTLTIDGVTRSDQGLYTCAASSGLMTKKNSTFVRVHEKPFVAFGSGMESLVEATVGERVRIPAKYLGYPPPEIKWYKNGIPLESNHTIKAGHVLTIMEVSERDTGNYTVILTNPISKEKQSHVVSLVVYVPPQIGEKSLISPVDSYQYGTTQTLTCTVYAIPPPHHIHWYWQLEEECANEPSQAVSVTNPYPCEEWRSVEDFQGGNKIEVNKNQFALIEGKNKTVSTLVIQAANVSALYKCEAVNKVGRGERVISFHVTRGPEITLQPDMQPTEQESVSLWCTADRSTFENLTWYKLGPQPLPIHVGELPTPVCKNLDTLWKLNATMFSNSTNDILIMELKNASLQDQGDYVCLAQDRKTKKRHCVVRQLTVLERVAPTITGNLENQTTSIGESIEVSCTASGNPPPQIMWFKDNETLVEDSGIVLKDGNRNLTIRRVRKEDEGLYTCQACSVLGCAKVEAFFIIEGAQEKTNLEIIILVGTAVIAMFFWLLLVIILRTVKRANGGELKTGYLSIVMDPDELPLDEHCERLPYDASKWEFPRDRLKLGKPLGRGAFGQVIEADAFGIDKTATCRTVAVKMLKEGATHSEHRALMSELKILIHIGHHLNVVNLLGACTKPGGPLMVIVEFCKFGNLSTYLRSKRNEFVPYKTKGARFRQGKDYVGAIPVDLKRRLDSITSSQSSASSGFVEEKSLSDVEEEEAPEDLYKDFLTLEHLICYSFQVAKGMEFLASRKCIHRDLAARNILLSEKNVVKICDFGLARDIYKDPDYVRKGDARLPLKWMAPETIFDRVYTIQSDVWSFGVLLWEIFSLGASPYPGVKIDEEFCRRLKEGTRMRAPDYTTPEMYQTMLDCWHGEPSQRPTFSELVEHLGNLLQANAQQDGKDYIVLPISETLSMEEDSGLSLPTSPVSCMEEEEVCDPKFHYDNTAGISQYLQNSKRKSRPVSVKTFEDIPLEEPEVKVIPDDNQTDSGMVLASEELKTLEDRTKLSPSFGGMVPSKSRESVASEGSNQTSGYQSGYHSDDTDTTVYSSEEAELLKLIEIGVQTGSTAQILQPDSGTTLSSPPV

Take VEGF121 VEGF121 (from UniProt P15692): the Kd is 5.5 nM.
